Changes are numbered by the printed parent chain.
Tests used:
Assay in all cases: SPR, KD relative to WT C2;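 further: biacore SPR at 37 °C, anti-C2 mAbs captured via immobilised goat anti-human IgG, C2 alanine or serine surface mutants as analytes, 1:1 model fitted, double-referenced sensograms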
human C2 G414A = biological target: T1, human C2 G414A (human, UniProt P06681 21-752)
T1 sequence: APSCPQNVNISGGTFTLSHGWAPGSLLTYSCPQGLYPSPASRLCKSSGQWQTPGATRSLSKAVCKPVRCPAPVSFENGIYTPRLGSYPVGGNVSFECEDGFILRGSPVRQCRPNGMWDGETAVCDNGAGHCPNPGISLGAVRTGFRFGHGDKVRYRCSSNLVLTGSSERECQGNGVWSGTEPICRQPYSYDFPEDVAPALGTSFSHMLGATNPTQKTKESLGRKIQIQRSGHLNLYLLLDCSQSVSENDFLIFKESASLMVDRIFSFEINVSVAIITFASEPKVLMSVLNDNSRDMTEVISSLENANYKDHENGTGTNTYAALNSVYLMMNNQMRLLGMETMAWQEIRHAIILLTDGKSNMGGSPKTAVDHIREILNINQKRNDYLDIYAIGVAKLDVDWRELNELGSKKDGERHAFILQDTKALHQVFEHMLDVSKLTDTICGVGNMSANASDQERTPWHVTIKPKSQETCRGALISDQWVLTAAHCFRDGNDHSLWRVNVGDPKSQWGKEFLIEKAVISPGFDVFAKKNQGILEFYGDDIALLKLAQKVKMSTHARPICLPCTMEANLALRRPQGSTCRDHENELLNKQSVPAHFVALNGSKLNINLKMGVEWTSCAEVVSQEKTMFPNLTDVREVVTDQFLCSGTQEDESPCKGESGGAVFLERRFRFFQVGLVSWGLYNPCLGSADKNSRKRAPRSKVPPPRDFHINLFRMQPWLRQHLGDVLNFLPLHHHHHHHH
Procedure: (§1) Surface plasmon resonance (SPR, Biacore) was used for all binding affinity analyses. In brief, goat anti-human IgG was directly immobilised onto the carboxymethyl dextran surface of CM5 sensorchips to approximately 12,000 RU using standard NHS/EDC chemistry at pH 5. The immobilised antibody surface was pre-conditioned with ten injections of polyclonal human IgG (Privigen 60 s) prepared at 1 μg/mL. Ligands (anti-C2 mAbs) were captured at the beginning of each cycle as described below. An adjacent spot or flow cell in which only Polyclonal IgG was capture was used as a reference surface. The goat anti-human IgG Fc antibody surface was regenerate in 100 mM H3PO4, injected for 45 seconds at the end of each cycle. Experiments were performed at 37° C. and the flow rate of each experiment was kept constant at 30 μL/min.
(§2) Sensogram data was double-referenced against a reference anti-IgG surface (i.e. minus anti-C2 mAb) and blank buffer injections obtained within each experiment. The binding data was fit to 1:1 (kinetic or steady-state) model using local Rmax and null refraction index (RI=0) when appropriate. Buffers and solutions were filtered (0.22 μm) prior to use.

human C2 E433A = biological target: T2, human C2 E433A (human, UniProt P06681 21-752)
T2 sequence: T1 sequence with A394G, E413A
Procedure: as §1, §2

human C2 L453A = biological target: T3, human C2 L453A (human, UniProt P06681 21-752)
T3 sequence: T1 sequence with A394G, L433A
Procedure: as §1, §2

human C2 N467A = biological target: T4, human C2 N467A (human, UniProt P06681 21-752)
T4 sequence: T1 sequence with A394G, N447A
Procedure: as §1, §2

B1: RF16-226 (antibody, human IgG4 S228P, lambda)
heavy: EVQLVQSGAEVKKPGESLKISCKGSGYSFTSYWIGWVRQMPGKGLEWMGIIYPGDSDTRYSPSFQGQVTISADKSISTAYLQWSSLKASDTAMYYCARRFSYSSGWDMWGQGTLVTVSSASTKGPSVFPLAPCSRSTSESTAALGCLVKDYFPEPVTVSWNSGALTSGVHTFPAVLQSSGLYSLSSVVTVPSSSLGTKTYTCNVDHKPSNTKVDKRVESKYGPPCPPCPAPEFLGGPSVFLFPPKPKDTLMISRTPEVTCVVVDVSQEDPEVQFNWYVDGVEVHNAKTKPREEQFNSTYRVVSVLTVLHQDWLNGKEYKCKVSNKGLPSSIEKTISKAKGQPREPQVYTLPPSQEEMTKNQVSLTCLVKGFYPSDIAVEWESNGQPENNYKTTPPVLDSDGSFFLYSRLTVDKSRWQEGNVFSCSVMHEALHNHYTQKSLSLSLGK
light: SYELTQPPSVSVSPGQTARITCSGDALTSKYVAWYQQKSGLAPLLVIYEDTRRPSGIPAKFSGSSSGSVATLTISGAHGDDEADYYCYSTDASGHQRVFGGGTKLTVLSQPKAAPSVTLFPPSSEELQANKATLVCLISDFYPGAVTVAWKADGSPVKAGVETTKPSKQSNNKYAASSYLSLTPEQWKSHRSYSCQVTHEGSTVEKTVAPTECS
notes: pH-dependent anti-C2 antibody from a phage display library; also called WT
- Fold diff (human C2 G414A): 1 fold
- Fold diff (human C2 E433A): 0 fold
- Fold diff (human C2 L453A): 3 fold
- Fold diff (human C2 N467A): 2 fold

From patent publication US20220332804A1 (CSL INNOVATION, published 2022)
